Experimental data: patent publication US20240352087A1

T1: HLA-A*01:01 (human), P04439
T1 chain: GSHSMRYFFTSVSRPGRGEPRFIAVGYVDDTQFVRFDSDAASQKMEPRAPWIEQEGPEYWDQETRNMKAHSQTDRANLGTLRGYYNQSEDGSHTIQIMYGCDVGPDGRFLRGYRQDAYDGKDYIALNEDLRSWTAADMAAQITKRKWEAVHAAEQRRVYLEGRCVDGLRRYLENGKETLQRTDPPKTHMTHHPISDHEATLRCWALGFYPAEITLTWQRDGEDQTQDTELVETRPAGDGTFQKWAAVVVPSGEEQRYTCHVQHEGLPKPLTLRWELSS

T2: HLA-A*02:01 (human), P04439
T2 chain: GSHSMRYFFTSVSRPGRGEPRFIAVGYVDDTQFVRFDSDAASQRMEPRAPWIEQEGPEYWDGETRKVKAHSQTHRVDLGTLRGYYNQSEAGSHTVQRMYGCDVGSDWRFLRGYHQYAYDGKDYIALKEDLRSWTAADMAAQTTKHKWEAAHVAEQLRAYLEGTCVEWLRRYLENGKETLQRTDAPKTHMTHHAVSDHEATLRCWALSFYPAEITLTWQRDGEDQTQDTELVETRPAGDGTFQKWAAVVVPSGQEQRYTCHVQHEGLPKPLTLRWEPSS


Key:
[1] = biological target: T1, HLA-A*01:01 (human), P04439; assay: HLA-binding assay; conditions: chains peptide; modification not given
[2] = biological target: T2, HLA-A*02:01 (human), P04439; assay: HLA-binding assay; conditions: chains peptide; modification not given

Row | Binder | IC50 [1] [nM] | IC50 [2] [nM]
1 | KSAIVTLTY [HPV E2 329-337 peptide …] | 11 | –
2 | VLLLWITAA [HPV E5 46-54 peptide …] | – | 11
3 | QVDYYGLYY [HPV E2 151-159 peptide …] | 18 | –
